The target in the assay is CD40 in the antibody expressing cells (rabbit plasmablasts from peripheral blood) (rabbit). Put plainly: cell-based or functional assay.

For “Fc-CD40-L (human IgG1-Fc fragment linked to the 18 kDa rabbit CD40-L fragment) (Fc fusion)”, the B cell growth after 7 days, batch sort in BM1, Fc-CD40-L against LZ-CD40-L (18 kDa) (% higher than LZ-CD40-L (18 kDa)) amounted to 32; the B cell growth after 7 days, batch sort in BM1, cytokines + CD40-L construct 7.5 ug/ml, against the reference EL4-B5 + TSN (% more than reference) is 43; the cell growth after 7 days, batch sort in BM1, cytokines + Fc-CD40-L 7.5 ug/ml (#4) against the reference TSN + EL4-B5 (% higher than reference) amounted to 23; the cell growth after 7 days, batch sort in BM2, 2.5 ug/ml Fc-CD40-L (#12) against 7.5 ug/ml (#10) came to 1.4 times lower. The cell growth after 7 days, batch sort in BM2, 5.0 ug/ml Fc-CD40-L (#11) against 7.5 ug/ml (#10) was determined as 1.1 times lower; the cell growth after 7 days, batch sort in BM2, cytokines + 2.5 ug/ml Fc-CD40-L (#12) against the reference #9 (% lower than reference) worked out at 27; the cell growth after 7 days, batch sort in BM2, cytokines + 5.0 ug/ml Fc-CD40-L (#11) against the reference #9 (% lower than reference) was 5; the cell growth after 7 days, batch sort in BM2, cytokines + 7.5 ug/ml Fc-CD40-L (#10) against the reference TSN + EL4-B5 (#9) (% higher than reference) turned out to be 6.

For LZ-CD40-L EctoD (ligand), the B cell growth after 7 days, batch sort in BM1, cytokines + CD40-L construct 7.5 ug/ml, against the reference EL4-B5 + TSN (% of reference) was 68; the DoE parameter estimate for plasmablast proliferation (cell number after 7 days, 50 cells per well, feeder cell and TSN replacement) was 139.

(Values after US20260201327A1.)
